Source: article PMC12205875, “CRY1–GAIP1 complex mediates blue light to hinder the repression of PIF5 on AGL5 to promote carotenoid biosynthesis in mango fruit”

Columns and labels:
MiGAIP1 (DELLA) = molecular target: T1, MiGAIP1 (DELLA) (Mangifera indica, UniProt UPI001CFB1029 1-553); assay: EMSA; LightShift Chemiluminescent EMSA kit (Thermo) per manufacturer; buffer, salt, pH and temperature not stated; conditions: protein: recombinant; tags: GST (pGEX4T); label: 3' biotin; blunt
T1 sequence: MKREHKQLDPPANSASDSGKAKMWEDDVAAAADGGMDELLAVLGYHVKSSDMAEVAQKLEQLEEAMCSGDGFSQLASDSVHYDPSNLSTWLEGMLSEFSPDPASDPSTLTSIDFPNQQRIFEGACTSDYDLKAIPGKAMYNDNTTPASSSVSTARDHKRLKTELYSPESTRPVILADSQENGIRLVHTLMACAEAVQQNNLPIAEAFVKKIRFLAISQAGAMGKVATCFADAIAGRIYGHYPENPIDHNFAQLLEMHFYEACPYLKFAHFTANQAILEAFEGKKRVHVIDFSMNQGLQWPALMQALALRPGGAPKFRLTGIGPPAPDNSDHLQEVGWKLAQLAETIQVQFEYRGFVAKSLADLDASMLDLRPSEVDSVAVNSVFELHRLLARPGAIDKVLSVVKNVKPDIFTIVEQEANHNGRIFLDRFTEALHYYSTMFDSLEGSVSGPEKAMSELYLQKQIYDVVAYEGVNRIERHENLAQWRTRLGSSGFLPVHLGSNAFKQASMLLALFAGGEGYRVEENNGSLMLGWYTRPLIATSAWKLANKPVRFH

MiPIF5 = molecular target: T2, MiPIF5 (Mangifera indica, UniProt UPI001CFAADE4 1-539); assay: as above; conditions: protein: recombinant; tags: GST (pGEX4T); chain copies: 2; label: 3' biotin; blunt
T2 sequence: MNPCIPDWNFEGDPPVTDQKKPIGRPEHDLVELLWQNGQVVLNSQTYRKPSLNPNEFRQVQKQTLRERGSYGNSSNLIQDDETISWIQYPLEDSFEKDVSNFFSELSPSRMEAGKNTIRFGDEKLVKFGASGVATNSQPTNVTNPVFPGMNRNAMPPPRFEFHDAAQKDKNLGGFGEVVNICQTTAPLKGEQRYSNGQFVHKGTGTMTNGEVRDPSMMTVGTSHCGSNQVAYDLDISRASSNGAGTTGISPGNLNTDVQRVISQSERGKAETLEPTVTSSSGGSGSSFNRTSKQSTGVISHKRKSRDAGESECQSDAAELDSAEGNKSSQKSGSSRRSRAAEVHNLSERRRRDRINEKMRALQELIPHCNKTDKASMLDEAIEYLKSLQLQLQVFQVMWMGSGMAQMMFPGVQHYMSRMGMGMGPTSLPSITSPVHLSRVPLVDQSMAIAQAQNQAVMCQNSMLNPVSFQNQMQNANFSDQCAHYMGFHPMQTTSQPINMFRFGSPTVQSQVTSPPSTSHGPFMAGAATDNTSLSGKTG

Binder	binding result (MiGAIP1 (DELLA))	binding result (MiPIF5)
ProMiAGL5-Probe (MiGAIP1) (dsDNA) DNA 1: TTTCAACAATCAAGAAATGAGAAAGGAAAGAAGAAAAAAGAAAGAAAAAAAAAAAAAGTGTCT DNA 2: AGACACTTTTTTTTTTTTTCTTTCTTTTTTCTTCTTTCCTTTCTCATTTCTTGATTGTTGAAA	binds	–
ProMiAGL5-Probe (MiPIF5) (dsDNA) DNA 1: GAGCATCACATGGGAGTCTATTTTCACTTTGTAATTTGAAAAGGAAAGAGATATATAC DNA 2: GTATATATCTCTTTCCTTTTCAAATTACAAAGTGAAAATAGACTCCCATGTGATGCTC	–	binds
